Experimental data: US5789157

System: unidentified red blood cell ghost membrane protein, apparent 105 kDa (target of c56t) (Homo sapiens)
Assay: filter
Settings: Scatchard on whole RBC ghosts, estimated, 1900 sites per cell; target taken as the 105 kDa protein from crosslinking

## AACTCAGTGGTAGGTAACGGTT [C56T (22-nt truncate of clone 56)]
  Kd: 0.042 nM
